Like-named read-outs stand apart in the source and are kept apart here.
What was measured:
[1] = target: Hfq (HfqEc) (Escherichia coli) (UniProt P0A6X3); assay: SHAPE footprinting
[2] = target: Hfq (HfqEc) (Escherichia coli) (UniProt P0A6X3); assay: EMSA
[3] = test system: HfqCp (Clostridium perfringens); assay: EMSA; conditions: 50 mM Tris-HCl pH 7.5, 100 mM KCl, 10 mM MgCl2, room temperature; […]

Hfq (HfqEc) (Escherichia coli), sequence (P0A6X3 whole entry): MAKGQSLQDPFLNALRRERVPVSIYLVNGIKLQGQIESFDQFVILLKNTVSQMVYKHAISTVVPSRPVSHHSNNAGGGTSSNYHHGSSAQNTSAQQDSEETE

| Substance | Kd [2] [nM] | other results |
| --- | --- | --- |
| GGCCUUCGGGCCAAUUCUGGCCGGCUAACCCGGUCACAUGGGAUGAGGAGAUAACAUAAUCUCCCUCCCACAAGCAGUAACUAUAAAAAUAACCCCACUCUCUACAAGGCUCGGGGCGCCCGAAAAAACGGGCAUACAGGUUGACCGACAACGAUAUAAAUCGGAAUCAAAAACUAUGUGUGGAAUUGUUGGCGCGUCGAUCCGGUUCGCCGGAUCCAAAUCGGGCUUCGGUCCGGUUCAAUAUUGGAUCCGCUCGG [glmS mRNA SHAPE construct] |  | binding [1]: binds |
| GGUUCUGGCCGGCUAACCCGGUCACAUGGGAUGAGGAGAUAACAUAAUCUCCCUCCCACAAGCAGUAACUAUAAAAAUAACCCCACUCUCUACAAGGCUCGGGGCGCCCGAAAAAACGGGCAUACAGGUUGACCGACAACGAUAUAAAUCGGAAUCAAAAACUAUGUGUGGAAUUGUUGGCGCGAAUAUUAAGCUUGCUCGG [glmS mRNA -161 to +21] | 30 |  |
| GlmY | 4.3 |  |
| GlmZ |  | Kd ([2]; 50 mM Tris-HCl pH 7.5, 100 mM KCl, 10 mM MgCl2, room temperature, […]): 4.5 nM; Kd [3]: 12 nM |
| glmS mRNA -161 to +21 | 30 |  |
